Test results as given in patent publication US20150190494A1 (OXFORD UNIVERSITY INNOVATION, published 2015).
Positions count from the first letter of the chain named. Numbers in names are those of the source.

T1: fH67 (UniProt P08603 321-443)
T1 construct: domain: fH67; Flowed as analyte over immobilised fHbps in SPR; also called factor H
T1 sequence: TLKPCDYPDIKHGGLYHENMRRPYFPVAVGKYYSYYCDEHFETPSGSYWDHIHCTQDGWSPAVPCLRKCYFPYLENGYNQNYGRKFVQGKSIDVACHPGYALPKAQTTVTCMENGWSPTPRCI

B1: WT V2 fHbp (other)
chain: CSSGGGGVAADIGAGLADALTAPLDHKDKSLQSLTLDQSVRKNEKLKLAAQGAEKTYGNGDSLNTGKLKNDKVSRFDFIRQIEVDGQLITLESGEFQIYKQDHSAVVALQIEKINNPDKIDSLINQRSFLVSGLGGEHTAFNQLPSGKAEYHGKAFSSDDPNGRLHYSIDFTKKQGYGRIEHLKTPEQNVELASAELKADEKSHAVILGDTRYGGEEKGTYHLALFGDRAQEIAGSATVKIREKVHEIGIAGKQ
notes: also called wild type V2 fHbp; V2WT
B2: M6 V2 fHbp (S35G/D107S/V112T/L114F/S137G/G138D) (other)
chain: B1 chain with S30G, D102S, V107T, L109F, S132G, G133D
B3: M5 V2 fHbp (S35G/D107S/L114F/S137G/G138D) (other)
chain: B1 chain with S30G, D102S, L109F, S132G, G133D
B4: M4A V2 fHbp (S35G/D107S/S137G/G138D) (other)
chain: B1 chain with S30G, D102S, S132G, G133D
B5: M4B V2 fHbp (S35G/L114F/S137G/G138D) (other)
chain: B1 chain with S30G, L109F, S132G, G133D

molecular target: T1, fH67; test: SPR, fHbp immobilised on sensor chip, fH67 flowed over
Procedure: Kd values for fH₆₇ binding to the stable V2 fHbps were calculated from the sensogram (fH₆₇ binding to WT V2 fHbp shown in Appendix 3a) and compared to fH₆₇ binding to WT V2 fHbp (Table 3).

In order of falling “Relative Kd” value:
1. B2  19.3 fold against WT V2 fHbp
2. B5  3.92 fold against WT V2 fHbp
3. B3  3.84 fold against WT V2 fHbp
4. B4  2.39 fold against WT V2 fHbp
5. B1  1 fold against WT V2 fHbp

molecular target: T1, fH67; test: SPR, fHbp immobilised on sensor chip, fH67 flowed over; mean ± SD of two determinations

In order of falling Kd:
1. B2  61.3 nM
2. B5  12.5 nM
3. B3  12.2 nM
4. B4  7.6 nM
5. B1  3.18 nM
